In the experiment the target is T1, S. gordonii SecY2-Asp4-Asp5 complex (S. gordonii) (UniProt A8AWV0).
T1 sequence 1: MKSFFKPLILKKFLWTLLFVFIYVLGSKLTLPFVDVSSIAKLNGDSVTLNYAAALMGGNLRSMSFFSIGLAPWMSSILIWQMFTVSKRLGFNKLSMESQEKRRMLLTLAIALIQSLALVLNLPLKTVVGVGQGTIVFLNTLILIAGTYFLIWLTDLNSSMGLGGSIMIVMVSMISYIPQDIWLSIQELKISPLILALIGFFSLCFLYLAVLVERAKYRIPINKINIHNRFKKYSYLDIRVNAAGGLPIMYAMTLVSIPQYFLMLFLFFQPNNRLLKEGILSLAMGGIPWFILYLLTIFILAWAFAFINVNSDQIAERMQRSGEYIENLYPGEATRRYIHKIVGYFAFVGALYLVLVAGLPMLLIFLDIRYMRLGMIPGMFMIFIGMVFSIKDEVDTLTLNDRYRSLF
T1 sequence 2: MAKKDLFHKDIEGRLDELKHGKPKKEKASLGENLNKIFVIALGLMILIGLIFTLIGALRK
T1 sequence 3: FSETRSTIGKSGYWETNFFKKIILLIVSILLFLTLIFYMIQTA

For the molecule “E. coli SecA (from UniProt P10408 1-901) (enzyme)”, the steady-state ATPase activity of 0.3 uM E. coli SecA on addition of 0.46 uM SecY2-Asp4-Asp5 in proteoliposomes, 25 C (SecA alone ~0.02 s^-1) was determined as 0.072 s⁻¹.

B1: S. gordonii SecA2 with a C-terminal His6 tag (enzyme)
chain: MVKNFFHIRRLKKILAKIKSFEKEMSSLSDLDLQKKTDEFKKRLADGENLDQLLPEAYAVVREVDKRILGLFPYDVQVMGAIVLHEGNIAEMATGEGKTLTATMPLYLNALSGQGAMLVTPNSYLALRDAKEMGPVYRFLGLTIETAVRADESKPLETKEKRRIYQADIIYTTNSALGFDYLIENLAENKKNQFLREFNYVIIDEIDSILLDSAQTPLIISGAPRVQSNFYDMMNTLVQTLYEDEDYCYDDEKNEVWLTQKGIRAAESFLGLNHLFSKENQELVRHLNLALRAHMVYKKDQDYVVRQSENEAEVVLLDRATGRLMELTRLQGGQHQAIEAKEHVKLTQETRAMASITYQNLFKLFRKLSGMTGTGKVVESEFLETYSMSVVKIPTNCPVIRRDYPDQIYQTLPEKVFASLDEVKHYHAKGNPLLIFTGSVEMSEIYSSLLLREGIAHNLLNANNVAREAQMIAESGQLGAVTVATSMAGRGTDIKLGPGVADLGGLVVIGTERMENHRIDLQIRGRSGRQGDPGISKFFISLEDDLLKKWGPDWIKNFYRDYSPEDFKNNPILLKQRRFKKLVSKAQKASEGNAKLSRRLTLEYAQSMKIQRELTYAERNRLLEDTNEMEEEINRVIEYVIKQVAYEQSFENRADFYRFILHHFSNRAERIPQEFDIHSPKEVSHLLQAIAEQELLAKKSYLKSDKLYSQFQRLAILKAIDENWVEQVDYLQQLKSALSGFHTSNKKPIVEYYQEAYDGFEYMKERMKHQIVKNLLMSELALNPKGEVVMYFP
Regarding B1, the steady-state ATPase activity of 0.3 uM S. gordonii SecA2 on addition of 0.46 uM SecY2-Asp4-Asp5 in proteoliposomes, 25 C (SecA2 alone ~0.01 s^-1; 4-fold increase) amounted to 0.044 s⁻¹.
